In patent US11827701B2, “IL-6 binding molecules” (argenx BV, priority 2012, dated 2023):
Substitutions are numbered along the chain they refer to. Where “and” joins values, the source holds several entries; their conditions need not be identical. Identical values can stand only once.

B1: 61H7: anti-IL-6 clone from VH chain shuffling of 24D10; Fab and IgG formats (antibody, V domains shown)
VH: EVQLVESGGGLVQPGGSLRLSCAASGFTFSSYRMYWVRQPPGKGLEWVSAISAGGGSTYYGDSVKGRFTISRDNAKNTVYLQMNSLKPEDTAVYYCANRAGWGMGDYWGQGTQVTVSS
VL: QTVVTQEPSLSVSPGGTVTLTCGLSSGSVTASNYPGWFQQTPGQAPRALIYSTNDRHSGVPSRFSGSISGNKAALTITGAQPEDEADYYCALDIGDITEFGGGTHLTVLG
B2: 61B7: 24D10 chain-shuffled Fab (antibody, V domains shown)
VH: B1 VH with V2L, R33A, Y35S, P40A, L45P, A50R, A53S, T58A, G61A, V79L
VL: B1 VL
B3: 68F2: anti-IL-6 clone from VL shuffling of 20A4; Fab and human IgG1 formats (antibody, listed as Lama glama, V domains shown)
VH: EVQLQESGPGLVKPSQTLSLTCTVSGGSITTRYYAWSWIRQPPGKGLEWMGVIDYDGDTYYSPSLKSRTSISWDTSKNQFSLQLSSVTPEDTAVYYCARDPDVVTGFHYDYWGQGTQVTVSS
VL: QSALTQPPLVSGTPGQTVTISCAGANNDIGTYAYVSWYQQLPGTAPKLLIYKVTTRASGIPSRFSGSKSGNTASLTISGLQSEDEADYYCASYRNFNNAVFGRGTHLTVLG
B4: 55H1c: 29B11 chain shuffled Fab, periplasmic fraction (antibody, V domains shown)
VH: EVQLVESGGGLVQPGGSLRLSCAASGFTFSSYAMSWVRQAPGKGLEWVSRISSGGISTYYADSVKGRFTISRDNAKNTLYLQMNSLKPEDTAVYYCVRYAWGVQWAFDFWGQGTQVTVSS
VL: AQSVVTQPPSVSGSPGKTVTISCAGTSSDVGYGNYVSWYQQLPGMAPKLLIYDVSKRASGIADRFSGSKSGNTASLTISGLQSEDEADYVCASYRRGGTAVFGGGTHLTVLG

What was measured:
[1] = test system: induced psoriatic lesions; assay: Humanized mouse psoriasis xenograft model (epidermal ridge thickness); assay type: in vivo; conditions: mean±s.e.m.; BNX mice
Procedure: A mouse xenograft model was employed to evaluate the prophylactic efficacy of clone 68F2 on the development of induced psoriatic lesions. Specifically, BNX mice were transplanted with 5 mm diameter full-thickness skin biopsies from non-involved skin from psoriasis patients (1 per mouse). After 3 weeks, the transplants were injected with 0.5×10^6 activated PBMCs. Treatment of mice with clone 68F2, anti-TNF antibody (Remicade), or betamethasone dipropionate (positive control) was begun 1 day before the activated cells were injected into the transplants.
Treatment efficacy was determined by epidermal ridge thickness, as measured by light microscopy. Significance between groups was analyzed statistically using analysis of variance (ANOVA) followed by post-hoc Least Square Difference (LSD) tests to establish statistical significance differences between treatment groups. A value of p<0.05 denoted a significant difference between groups.

[2] = biological target: T1, bacterially produced human IL-6 (Homo sapiens, UniProt P05231); assay: Surface plasmon resonance (Biacore), bacterially produced human IL-6 coated on CM5 chip; assay type: binding; conditions: for Bact (off-rate): 24D10 chain-shuffled Fabs
T1 construct: His
T1 sequence (P05231 30-212): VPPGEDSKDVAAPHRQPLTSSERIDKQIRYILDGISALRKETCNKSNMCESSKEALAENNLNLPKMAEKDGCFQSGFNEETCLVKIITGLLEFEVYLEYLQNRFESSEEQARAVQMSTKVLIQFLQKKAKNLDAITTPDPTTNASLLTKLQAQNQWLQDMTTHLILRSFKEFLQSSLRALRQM

cynomolgus monkey IL-6 [3] = biological target: T2, cynomolgus monkey IL-6 (Macaca fascicularis, UniProt P79341); assay: Surface plasmon resonance (Biacore), cynomolgus monkey IL-6; assay type: binding; conditions: periplasmic fractions, 24D10 chain-shuffled Fabs
T2 construct: His
T2 sequence (P79341 28-212): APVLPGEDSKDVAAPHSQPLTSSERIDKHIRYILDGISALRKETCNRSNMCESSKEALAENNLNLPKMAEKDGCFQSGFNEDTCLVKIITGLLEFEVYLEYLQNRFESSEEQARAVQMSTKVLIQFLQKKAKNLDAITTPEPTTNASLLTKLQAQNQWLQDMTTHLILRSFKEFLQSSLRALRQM

IL-6 = assay: Serum amyloid A (SAA) mouse model, induction by injected IL-6; assay type: in vivo; set-up: SAA, Mean / SAA, Mouse1 / SAA, Mouse2 / SAA, Mouse3 / SAA, Mouse4 / SAA, Mouse5 / SAA, Mouse6: unit not given here; conditions: for SAA, Mouse1 / SAA, Mouse2 / SAA, Mouse3 / SAA, Mouse4 / SAA, Mouse5 / SAA, Mouse6 / SAA, Mean: 0.1 μg IL-6; for SAA, Mean: mean of 6 mice; for in vivo efficacy (block of SAA induction): Balb/c mice, i.v., 0.1 ug IL-6
Procedure: The in vivo efficacy of clones 68F2 and 61H7 was further investigated by measuring the ability of these antibodies to block serum amyloid A (SAA) induction in response to injected IL-6. General methods for performing this assay are set forth in WO2006/119115A2, which is hereby incorporated by reference in its entirety. […] Four hours after administration of the antibody, the mice were injected with 0.1 ug of IL-6. After a further 16 hours, blood was taken from the mice and the concentration of Serum Amyloid A was determined by ELISA. The dose responses are also graphically depicted in FIG. 13.

[4] = biological target: T3, eukaryotically produced human IL-6 (Homo sapiens, UniProt P05231); assay: Surface plasmon resonance (Biacore), eukaryotically produced human IL-6 coated on CM5 chip; assay type: binding; conditions: for RANKED euk (off-rate): 24D10 chain-shuffled Fabs; for Average binding: average over the IL-6 forms
T3 construct: purchased Humanzyme HZ-1044; host or cells: Human Embryonic kidney cells
T3 sequence (P05231 30-212): as the sequence (P05231 30-212) above

RXF393 cells = assay: Renal cell cancer mouse xenograft model; assay type: in vivo
Procedure: The in vivo efficacy of clones 68F2 was investigated in a renal cell cancer mouse xenograft model. […] Briefly, RXF393 cells (2×10^6) were injected subcutaneously at both lateral sides of a nude mouse. Tumors were allowed to grow to a volume between of 50 en 300 mm^3, prior to antibody administration. 90% of the injected mice developed a tumor. 40 mice were split into 5 groups of 8 mice. Each group was received intraperatoneal injection of either PBS (control) or a specific dose of clone 68F2 (1, 3, 10, or 30 mg/kg). Tumor size and survival was monitored twice per week.

cynomolgus monkey IL-6 [5] = biological target: T2, cynomolgus monkey IL-6; assay: Surface plasmon resonance (Biacore), cynomolgus monkey IL-6; assay type: binding
[6] = Bact, purified 24D10 chain-shuffled Fabs
[7] = Euk IL-6, purified 24D10 chain-shuffled Fabs
[8] = bact, periplasmic fractions, 29B11 chain shuffled
[9] = cy/cyno, periplasmic fractions, 29B11 chain shuffled
[10] = euk, periplasmic fractions, 29B11 chain shuffled

Molecule	epidermal ridge thickness [1] [μm]	ka [2, 6] [M⁻¹ s⁻¹]	kd [2, 6] [s⁻¹]	Bact (off-rate) ([2]; periplasmic fractions)	cyno (off-rate) (cynomolgus monkey IL-6 [3])	SAA, Mouse1 (IL-6; Ab dose/mouse 0.31 μg)	SAA, Mouse2 (IL-6; Ab dose/mouse 0.31 μg)	SAA, Mouse3 (IL-6; Ab dose/mouse 0.31 μg)	SAA, Mouse4 (IL-6; Ab dose/mouse 0.31 μg)	SAA, Mouse5 (IL-6; Ab dose/mouse 0.31 μg)	SAA, Mouse6 (IL-6; Ab dose/mouse 0.31 μg)	SAA, Mean (IL-6; Ab dose/mouse 0.31 μg)	SAA, Mouse1 (IL-6; Ab dose/mouse 1.25 μg)	SAA, Mouse2 (IL-6; Ab dose/mouse 1.25 μg)	SAA, Mouse3 (IL-6; Ab dose/mouse 1.25 μg)	SAA, Mouse4 (IL-6; Ab dose/mouse 1.25 μg)	SAA, Mouse5 (IL-6; Ab dose/mouse 1.25 μg)	SAA, Mouse6 (IL-6; Ab dose/mouse 1.25 μg)	RANKED euk (off-rate) ([4]; periplasmic fractions)	Average binding ([4]; periplasmic fractions)	also measured
CCC(=O)OCC(=O)[C@@]1(OC(=O)CC)[C@@H](C)C[C@H]2[C@@H]3CCC4=CC(=O)C=C[C@]4(C)[C@@]3(F)[C@@H](O)C[C@@]21C [betamethasone, betamethasone dipropionate]	83																				
Remicade: anti-TNF antibody	125																				
B1		120000	2e-06	7.54E−05	9.45E−05	184	148	124	140	133	76	134.2	66	29	33	30	24	35	9.32E−05	635 RU	SAA, Mean (IL-6; Ab dose/mouse 1.25 μg): 36.2; SAA, Mouse1 (IL-6; Ab dose/mouse 5 μg): 47; SAA, Mouse2 (IL-6; Ab dose/mouse 5 μg): 62; SAA, Mouse3 (IL-6; Ab dose/mouse 5 μg): 47; SAA, Mouse4 (IL-6; Ab dose/mouse 5 μg): 40; SAA, Mouse5 (IL-6; Ab dose/mouse 5 μg): 46; SAA, Mouse6 (IL-6; Ab dose/mouse 5 μg): 47; SAA, Mean (IL-6; Ab dose/mouse 5 μg): 48.2; in vivo efficacy (block of SAA induction) (IL-6): in vivo efficacy at least equal to the high potency benchmark controls GL18 and CNTO136; ka [4, 7]: 120000 M⁻¹ s⁻¹; kd [4, 7]: 5.5e-05 s⁻¹; binding ([4]; periplasmic fractions ('pur' = purified Fab), IL-6 form not stated): 176
B2		350000	5.7e-05	9.07E−05	1.16E−04														9.79E−05	597 RU	ka [4, 7]: 330000 M⁻¹ s⁻¹; kd [4, 7]: 6.6e-05 s⁻¹
B3	125					83	129	116	132	145	136	123.5	69	67	81	73	47	83			median survival time (RXF393 cells; 1 mg/kg): 21 days; median survival time (RXF393 cells; 3 mg/kg): 21 days; median survival time (RXF393 cells; 10 mg/kg): 27.5 days; median survival time (RXF393 cells; 30 mg/kg): 21 days; tumor outgrowth (RXF393 cells; 1, 3, 10, 30 mg/kg): effective at inhibiting tumor outgrowth in a dose-dependent manner with saturating effects at 10 mg/kg dose; Koff HIS-cyIL-6 (cynomolgus monkey IL-6 [5]; purified chain-shuffled Fabs): 0.00075 s⁻¹; SAA, Mean (IL-6; Ab dose/mouse 1.25 μg): 70.0; SAA, Mouse1 (IL-6; Ab dose/mouse 5 μg): 76; SAA, Mouse2 (IL-6; Ab dose/mouse 5 μg): 38; SAA, Mouse3 (IL-6; Ab dose/mouse 5 μg): 46; SAA, Mouse4 (IL-6; Ab dose/mouse 5 μg): 63; SAA, Mouse5 (IL-6; Ab dose/mouse 5 μg): 43; SAA, Mouse6 (IL-6; Ab dose/mouse 5 μg): 40; SAA, Mean (IL-6; Ab dose/mouse 5 μg): 51.0; in vivo efficacy (block of SAA induction) (IL-6): in vivo efficacy at least equal to the high potency benchmark controls GL18 and CNTO136
B4				1.35E−04 and 1.40E−04 and 1.26E−04	4.17E−04 and 4.30E−04 and 3.90E−04														1.01E−04 and 1.06E−04 and 1.13E−04	773 RU and 770 RU and 873 RU	KA [2, 8]: 1e+10 M⁻¹; ka [2, 8]: 1.28e+06 M⁻¹ s⁻¹; kd [2, 8]: 0.000127 s⁻¹; KA (cynomolgus monkey IL-6 [5]; [9]): 1.89e+09 M⁻¹; ka (cynomolgus monkey IL-6 [5]; [9]): 1.16e+06 M⁻¹ s⁻¹; kd (cynomolgus monkey IL-6 [5]; [9]): 0.000615 s⁻¹; KA [4, 10]: 1.02e+10 M⁻¹; ka [4, 10]: 1.13e+06 M⁻¹ s⁻¹; kd [4, 10]: 0.000111 s⁻¹
